Tests used:
HT-1080 cells = assay: Gene expression by Oligo GEARRAY Human Apoptosis Microarray; type: cell-based
Procedure: To study the gene expression profiles of proteins involved in apoptosis, approximately 2×10^7 cells were grown to confluence and treated with either recombinant R24K KD1 or vehicle for 24 hours and 48 hours. After the treatment, the cells were harvested and total RNA was purified using the RNEASY RNA extraction kit according to the manufacturer's instruction. The purified RNA samples were further digested using an on-column DNase digestion with RNase-free DNase-I to ensure complete removal of any contaminating genomic or mitochondrial DNA. The pathway-specific microarray was carried out using 3 μg of total RNA to generate biotin-labeled cRNA using TRUELABELING-AMP from SABiosciences Corp. (Frederick, Md.). TRUELABELING-AMP 2.0 from (SABiosciences Corp., Frederick, Md.) was used to rapidly amplify and label antisense RNA for hybridization. Three micrograms of labeled cRNA was used for hybridization with an Oligo GEARRAY Human Apoptosis Microarray consisting of 112 genes. Following incubation with CDP-STAR, the chemiluminescent array image was captured by a cooled CCD camera (Alpha Innotech Corp., San Leandro, Calif.). All images were saved as electronic files in a grayscale, 8 or 16 bit TIFF file format and analyzed using a GEARRAY Expression Analysis Suite. Data were normalized using minimum value background subtraction and interquartile normalization. Minimum value is the lowest density spot on the array and the average across the spot was used as the background correction value and is subtracted from the intensity value for each spot on the array. Interquartile uses only genes between the 25% and 75% quartile and the average intensity value of these spots is used for normalization of all the genes (intensity value of each gene is divided by this mean intensity value). The pUC19 plasmid was used as the negative control in the array.

[1] = system: human colorectal cancer cell line (Colo-205); assay: Caspase activation in Colo-205 cells; type: cell-based; conditions: 48 hour exposure, 1 μM
[2] = system: human umbilical vein endothelial cells (HUVECs); assay: In vitro human endothelial cell angiogenesis assay (capillary tube formation on ECMATRIX); type: cell-based; conditions: for inhibition of angiogenesis (capillary-like tube formation): HUVECs on matrix
Source text: The angiogenesis assay is commercially available from Chemicon International, Inc. (Temecula, Calif.), and involves growing human umbilical vein endothelial cells (HUVECs) on a proprietary matrix, followed by assessing angiogenesis on this matrix by counting new branch points in sprouting endothelial cells.
A semi-quantitative assay for in vitro angiogenesis was utilized. Human umbilical vein endothelial cells (HUVEC, Clonetics Corp., Walkersville, Md.) were maintained in 25 cm^2 flasks in EGM-2 media (Clonetics Corp.) supplemented with 2% fetal bovine serum, gentamicin, amphotericin-B, hEGF, hydrocortisone, VEGF, hFGF-B, R^3-IGF-1, ascorbic acid and heparin. For assay, a 48-well tissue culture plate was coated with 100 μl of ECMATRIX (Chemicon International, Inc., Temecula, Calif.) followed by incubation at 37° C. for one hour. Approximately 5×10^4 cells were then seeded onto the surface of the polymerized matrix. Varying concentrations of full-length human TFPI-2, diluted in EGM-2 media and filtered, were added to the wells and plate was placed in 37° C.-humidified CO2 incubator. Each treatment was performed in duplicate wells. Separately, VEGF was used as a positive control. The three-dimensional organization of cells was examined every hour under an inverted photomicroscope. The capillary tube branch point formation was counted in each well following eight hours of incubation. For each concentration, eight randomly chosen areas under 250× magnified field were observed. The results are expressed as number of branching points (mean±SEM) and the differences between each mean value was tested by one way analysis of variance (ANOVA). Statistically p-value <0.05 was accepted.
To examine the effect of full-length human TFPI-2 on morphogenesis (capillary-like tube formation) of endothelial cells, HUVECs were seeded on the matrigel and treated with full-length human TFPI-2 (0.2 μM-5 μM).

[3] = system: FGF-2-induced angiogenesis; assay: FGF-2-induced cornea pocket assay; type: in vivo; conditions: preliminary studies

B1: R24K KD1: KD1 with lysine in place of arginine at position 24 (SEQ ID NO:3) (protein)
chain: DAAQEPTGNNAEICLLPLDYGPCKALLLRYYYDRYTQSCRQFLYGGCEGNANNFYTWEACDDACWRIEKVPKV
modifications: mutated active domain
In the case of B1, the “Fold change BAG3, Group 2 vs. Group 1” value (HT-1080 cells; Group 2 vs. Group 1) is reported as 0.60 fold, the “Fold change BAK1, Group 2 vs. Group 1” value (HT-1080 cells; Group 2 vs. Group 1) is reported as 1.78 fold and the “Fold change BAX, Group 2 vs. Group 1” value (HT-1080 cells; Group 2 vs. Group 1) is reported as 3.09 fold. The “Fold change BCL2, Group 2 vs. Group 1” value (HT-1080 cells; Group 2 vs. Group 1) was 0.65 fold, the “Fold change BCL2A1, Group 2 vs. Group 1” value (HT-1080 cells; Group 2 vs. Group 1) was 2.02 fold and the “Fold change BCLAF1, Group 2 vs. Group 1” value (HT-1080 cells; Group 2 vs. Group 1) was 0.74 fold. The “Fold change BFAR, Group 2 vs. Group 1” value (HT-1080 cells; Group 2 vs. Group 1) was 0.34 fold, the “Fold change BNIP3, Group 2 vs. Group 1” value (HT-1080 cells; Group 2 vs. Group 1) was 1.71 fold and the “Fold change CARD6, Group 2 vs. Group 1” value (HT-1080 cells; Group 2 vs. Group 1) was 2.31 fold. For the same molecule, the “Fold change CARD11, Group 2 vs. Group 1” value (HT-1080 cells; Group 2 vs. Group 1) was 1.54 fold, the “Fold change CASP4, Group 2 vs. Group 1” value (HT-1080 cells; Group 2 vs. Group 1) was 1.18 fold and the “Fold change CASP9, Group 2 vs. Group 1” value (HT-1080 cells; Group 2 vs. Group 1) was 1.50 fold. For the same molecule, the “Fold change CD40, Group 2 vs. Group 1” value (HT-1080 cells; Group 2 vs. Group 1) was 4.74 fold, the “Fold change CIDEB, Group 2 vs. Group 1” value (HT-1080 cells; Group 2 vs. Group 1) was 2.25 fold and the “Fold change GADD45A, Group 2 vs. Group 1” value (HT-1080 cells; Group 2 vs. Group 1) was 1.88 fold. For the same molecule, the “Fold change LTA, Group 2 vs. Group 1” value (HT-1080 cells; Group 2 vs. Group 1) was 75.31 fold, the “Fold change LTBR, Group 2 vs. Group 1” value (HT-1080 cells; Group 2 vs. Group 1) was 1.38 fold and the “Fold change MCL1, Group 2 vs. Group 1” value (HT-1080 cells; Group 2 vs. Group 1) was 1.46 fold. The “Fold change TNFRSF1B, Group 2 vs. Group 1” value (HT-1080 cells; Group 2 vs. Group 1) was 1.59 fold, the “Fold change TNFRSF10B, Group 2 vs. Group 1” value (HT-1080 cells; Group 2 vs. Group 1) was 1.68 fold and the “Fold change TNFRSF25, Group 2 vs. Group 1” value (HT-1080 cells; Group 2 vs. Group 1) was 1.27 fold. For the same molecule, the “Fold change TRADD, Group 2 vs. Group 1” value (HT-1080 cells; Group 2 vs. Group 1) was 1.92 fold, the “Fold change TRAF4, Group 2 vs. Group 1” value (HT-1080 cells; Group 2 vs. Group 1) was 3.79 fold and the “Fold change BAG3, Group 3 vs. Group 1” value (HT-1080 cells; Group 3 vs. Group 1) was 0.44 fold. The “Fold change BAK1, Group 3 vs. Group 1” value (HT-1080 cells; Group 3 vs. Group 1) was 1.74 fold, the “Fold change BAX, Group 3 vs. Group 1” value (HT-1080 cells; Group 3 vs. Group 1) was 3.97 fold and the “Fold change BCL2, Group 3 vs. Group 1” value (HT-1080 cells; Group 3 vs. Group 1) was 0.12 fold. The “Fold change BCL2A1, Group 3 vs. Group 1” value (HT-1080 cells; Group 3 vs. Group 1) was 2.09 fold, the “Fold change BCL2L13, Group 3 vs. Group 1” value (HT-1080 cells; Group 3 vs. Group 1) was 1.61 fold and the “Fold change BCLAF1, Group 3 vs. Group 1” value (HT-1080 cells; Group 3 vs. Group 1) was 0.41 fold. The “Fold change BFAR, Group 3 vs. Group 1” value (HT-1080 cells; Group 3 vs. Group 1) was 0.25 fold, the “Fold change BNIP3, Group 3 vs. Group 1” value (HT-1080 cells; Group 3 vs. Group 1) was 1.69 fold and the “Fold change CARD6, Group 3 vs. Group 1” value (HT-1080 cells; Group 3 vs. Group 1) was 3.62 fold. For the same molecule, the “Fold change CARD11, Group 3 vs. Group 1” value (HT-1080 cells; Group 3 vs. Group 1) was 4.36 fold, the “Fold change CASP4, Group 3 vs. Group 1” value (HT-1080 cells; Group 3 vs. Group 1) was 2.28 fold and the “Fold change CASP9, Group 3 vs. Group 1” value (HT-1080 cells; Group 3 vs. Group 1) was 3.22 fold. The “Fold change CD40, Group 3 vs. Group 1” value (HT-1080 cells; Group 3 vs. Group 1) was 63.39 fold, the “Fold change CIDEB, Group 3 vs. Group 1” value (HT-1080 cells; Group 3 vs. Group 1) was 1.77 fold and the “Fold change GADD45A, Group 3 vs. Group 1” value (HT-1080 cells; Group 3 vs. Group 1) was 5.56 fold. The “Fold change LTA, Group 3 vs. Group 1” value (HT-1080 cells; Group 3 vs. Group 1) was 15.94 fold, the “Fold change LTBR, Group 3 vs. Group 1” value (HT-1080 cells; Group 3 vs. Group 1) was 1.88 fold and the “Fold change MCL1, Group 3 vs. Group 1” value (HT-1080 cells; Group 3 vs. Group 1) was 2.20 fold. The “Fold change TNFRSF1B, Group 3 vs. Group 1” value (HT-1080 cells; Group 3 vs. Group 1) was 2.10 fold, the “Fold change TNFRSF10B, Group 3 vs. Group 1” value (HT-1080 cells; Group 3 vs. Group 1) was 1.71 fold and the “Fold change TNFRSF25, Group 3 vs. Group 1” value (HT-1080 cells; Group 3 vs. Group 1) was 2.08 fold. The “Fold change TRADD, Group 3 vs. Group 1” value (HT-1080 cells; Group 3 vs. Group 1) was 2.07 fold, the “Fold change TRAF4, Group 3 vs. Group 1” value (HT-1080 cells; Group 3 vs. Group 1) was 4.05 fold and the caspase activation [1] was “caspase activation”.

B2: TFPI-2: Human tissue factor pathway inhibitor-2, 213 amino acid polypeptide with three tandem Kunitz-type domains (SEQ ID NO:1) (protein, listed as Homo sapiens)
chain: DAAQEPTGNNAEICLLPLDYGPCRALLLRYYYDRYTQSCRQFLYGGCEGNANNFYTWEACDDACWRIEKVPKVCRLQVSVDDQCEGSTEKYFFNLSSMTCEKFFSGGCHRNRIENRFPDEATCMGFCAPKKIPSFCYSPKDEGLCSANVTRYYFNPRYRTCDAFTYTGCGGNDNNFVSREDCKRACAKALKKKKKMPKLRFASRIRKIRKKQF
For B2, the capillary-like tube formation ([2]; 5 μM, overnight incubation) was “no complete tube formation even after overnight incubation”, the “inhibition of angiogenesis (capillary-like tube formation)” value [2] was “significantly inhibited the capillary-like tube formation of HUVECs in a dose-dependent manner” and the “inhibition of angiogenesis (capillary-like tube formation)” value ([2]; listed as wild-type TFPI-2) was “inhibit angiogenesis”. For the same molecule, the anti-angiogenic effect [3] was “potent and dose-dependent anti-angiogenic effect”.
